Test results as given in publication PMC8141814 (Frontiers in Molecular Biosciences, 2021).

Molecular target: GS-nsp5 C145A (GS added nsp5 construct with the active site mutation C145A) (SARS-CoV-2)
Test: NMR, 2D [15N,1H]-BEST-TROSY spectra compared

## GS-nsp5 C145A (GS added nsp5 construct with the active site mutation C145A) (enzyme)
  stoichiometry N: 2
